# B1: FBF1 (parent)
# chain: YQRPQDSEDMWGDEDFTFGAYQPT
# B2: PRPH (parent)
# chain: DEIEFLKKLHEEELRDLQVSVESQ
# Variants of: B1
# Assay: protein stability index of a GFP-peptide fusion (GPS, HEK-293T) (PSI 1-6); higher = more stable
# Settings: c terminus: a fixed tail appended
# 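Note: lentivirally expressed fusions sorted by FACS into six bins by GFP to DsRed ratio, PSI derived from sequencing read proportions per bin multiplied by bin number.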
row,Variant,protein stability index
1,YQRPQDSEDMWGDEDFTFGAYTPT,2.28
2,YQRPQDSEDMWGDEDFTFGAYFPT,2.38
3,YQRPQDSEDMWGDEDFTFGAYMPT,2.22
4,YQRPQDSEDMWGDEDFTFGAYLPT,2.77
5,YQRPQDSEDMWGDEDFTFGAYAPT,2.77
6,YQRPQDSEDMWGDEDFTFGAYRPT,2.65
7,YQRPQDSEDMWGDEDFTFGAYEPT,3.19
8,YQRPQDSEDMWGDEDFTFGAYVPT,2.37
9,YQRPQDSEDMWGDEDFTFGAYNPT,2.57
10,YQRPQDSEDMWGDEDFTFGAYIPT,2.45
11,YQRPQDSEDMWGDEDFTFGAYWPT,1.94
12,YQRPQDSEDMWGDEDFTFGAYYPT,3.22
13,YQRPQDSEDMWGDEDFTFGAYPPT,3.19
14,YQRPQDSEDMWGDEDFTFGAYCPT,2.6
15,YQRPQDSEDMWGDEDFTFGAYKPT,1.95
16,YQRPQDSEDMWGDEDFTFGAYHPT,2.43
17,YQRPQDSEDMWGDEDFTFGAYDPT,3.06
18,YQRPQDSEDMWGDEDFTFGAYSPT,3.03
19,YQRPQDSEDMWGDEDFTFGAYGPT,2.86
20,YQRPQDSEDMWGDEDFTFGAYQCT,2.96
21,YQRPQDSEDMWGDEDFTFGAYQGT,3.19
22,YQRPQDSEDMWGDEDFTFGAYQRT,2.67
23,YQRPQDSEDMWGDEDFTFGAYQLT,2.87
24,YQRPQDSEDMWGDEDFTFGAYQAT,2.47
25,YQRPQDSEDMWGDEDFTFGAYQIT,2.64
26,YQRPQDSEDMWGDEDFTFGAYQYT,2.85

row,Variant,protein stability index
1,YQRPQDSEDMWGDEDFTFGAYQWT,2.19
2,YQRPQDSEDMWGDEDFTFGAYQMT,2.26
3,YQRPQDSEDMWGDEDFTFGAYQHT,3.32
4,YQRPQDSEDMWGDEDFTFGAYQET,3.36
5,YQRPQDSEDMWGDEDFTFGAYQST,2.61
6,YQRPQDSEDMWGDEDFTFGAYQFT,2.74
7,YQRPQDSEDMWGDEDFTFGAYQDT,3.06
8,YQRPQDSEDMWGDEDFTFGAYQVT,2.4
9,YQRPQDSEDMWGDEDFTFGAYQQT,3.06
10,YQRPQDSEDMWGDEDFTFGAYQTT,2.87
11,YQRPQDSEDMWGDEDFTFGAYQKT,2.68
12,YQRPQDSEDMWGDEDFTFGAYQNT,3.1
13,YQRPQDSEDMWGDEDFTFGAHQPT,3.07
14,YQRPQDSEDMWGDEDFTFGATQPT,3.1
15,YQRPQDSEDMWGDEDFTFGADQPT,3.73
16,YQRPQDSEDMWGDEDFTFGASQPT,3.51
17,YQRPQDSEDMWGDEDFTFGAMQPT,2.78
18,YQRPQDSEDMWGDEDFTFGAPQPT,3.56
19,YQRPQDSEDMWGDEDFTFGAFQPT,2.98
20,YQRPQDSEDMWGDEDFTFGARQPT,3.06
21,YQRPQDSEDMWGDEDFTFGALQPT,3.35
22,YQRPQDSEDMWGDEDFTFGAKQPT,3.44
23,YQRPQDSEDMWGDEDFTFGAEQPT,3.75
24,YQRPQDSEDMWGDEDFTFGAGQPT,3.46
25,YQRPQDSEDMWGDEDFTFGAVQPT,2.92
26,YQRPQDSEDMWGDEDFTFGACQPT,3.17

row,Variant,protein stability index
1,YQRPQDSEDMWGDEDFTFGAQQPT,3.39
2,YQRPQDSEDMWGDEDFTFGAIQPT,3.16
3,YQRPQDSEDMWGDEDFTFGANQPT,3.51
4,YQRPQDSEDMWGDEDFTFGAAQPT,3.51
5,YQRPQDSEDMWGDEDFTFGAWQPT,2.04
6,YQRPQDSEDMWGDEDFTFWAYQPT,1.84
7,YQRPQDSEDMWGDEDFTFSAYQPT,3.18
8,YQRPQDSEDMWGDEDFTFYAYQPT,2.35
9,YQRPQDSEDMWGDEDFTFRAYQPT,2.47
10,YQRPQDSEDMWGDEDFTFVAYQPT,2.8
11,YQRPQDSEDMWGDEDFTFTAYQPT,2.6
12,YQRPQDSEDMWGDEDFTFGEYQPT,3.29
13,YQRPQDSEDMWGDEDFTFGPYQPT,2.92
14,YQRPQDSEDMWGDEDFTFGSYQPT,2.69
15,YQRPQDSEDMWGDEDFTFGNYQPT,2.9
16,YQRPQDSEDMWGDEDFTFGHYQPT,2.95
17,YQRPQDSEDMWGDEDFTFGGYQPT,2.91
18,YQRPQDSEDMWGDEDFTFGTYQPT,3.05
19,YQRPQDSEDMWGDEDFTFGDYQPT,3.02
20,YQRPQDSEDMWGDEDFTFGYYQPT,2.79
21,YQRPQDSEDMWGDEDFTFGRYQPT,2.18
22,YQRPQDSEDMWGDEDFTFGVYQPT,2.72
23,YQRPQDSEDMWGDEDFTFGFYQPT,2.38
24,YQRPQDSEDMWGDEDFTFGWYQPT,2.04
25,YQRPQDSEDMWGDEDFTFGKYQPT,2.94
26,YQRPQDSEDMWGDEDFTFGQYQPT,2.97

row,Variant,protein stability index
1,YQRPQDSEDMWGDEDFTFGIYQPT,2.11
2,YQRPQDSEDMWGDEDFTFGLYQPT,2.76
3,YQRPQDSEDMWGDEDFTFGCYQPT,2.18
4,YQRPQDSEDMWGDEDFTFGMYQPT,2.62
5,YQRPQDSEDMWGDEDFTFGAYQPW,1.99
6,YQRPQDSEDMWGDEDFTFGAYQPH,2.27
7,YQRPQDSEDMWGDEDFTFGAYQPL,2.23
8,YQRPQDSEDMWGDEDFTFGAYQPR,2.38
9,YQRPQDSEDMWGDEDFTFGAYQPK,3.02
10,YQRPQDSEDMWGDEDFTFGAYQPV,2.63
11,YQRPQDSEDMWGDEDFTFGAYQPE,2.58
12,YQRPQDSEDMWGDEDFTFGAYQPN,3.02
13,YQRPQDSEDMWGDEDFTFGAYQPY,2.44
14,YQRPQDSEDMWGDEDFTFGAYQPM,2.52
15,YQRPQDSEDMWGDEDFTFGAYQPA,2.79
16,YQRPQDSEDMWGDEDFTFGAYQPQ,2.68
17,YQRPQDSEDMWGDEDFTFGAYQPG,3.25
18,YQRPQDSEDMWGDEDFTFGAYQPD,2.88
19,YQRPQDSEDMWGDEDFTFGAYQPS,2.67
20,YQRPQDSEDMWGDEDFTFGAYQPI,2.24
21,YQRPQDSEDMWGDEDFTFGAYQPC,2.83
22,YQRPQDSEDMWGDEDFTFGAYQPP,3.17
23,YQRPQDSEDMWGDEDFTFGAYQPF,2.29

# Variants of: B2
# Assay: as above
# Settings: c terminus: a fixed tail appended
row,Variant,protein stability index
1,DEYEFLKKLHEEELRDLQVSVESQ,4.8
2,DEKEFLKKLHEEELRDLQVSVESQ,5.18
3,DEIEFLKKLHEEELRCLQVSVESQ,4.28
4,DEIEFLKKLHEEELRPLQVSVESQ,4.59
5,DEIEFLKKLHEERLRDLQVSVESQ,4.42
6,DEIEFLKKLHEEMLRDLQVSVESQ,3.46
7,DEIEFLKKLHEEQLRDLQVSVESQ,4.65
8,DEIEFLKKLHEEVLRDLQVSVESQ,3.73
9,DEIEFLKKLHEEGLRDLQVSVESQ,4.83
10,DEIEFLKKLHEEYLRDLQVSVESQ,3.95
11,DEIEFLKKLHEEELRDLQVSRESQ,4.39
12,DEIEFLKKLHEEELRDLQVSVESH,4.52
13,DEIEFLKKLHEEELRDLQVSVEST,4.76
14,DEIEFLKKLHEEELRDLQVSVESM,4.64
15,DEIEFLKKLHEEELRDLQKSVESQ,5
16,DEIEFLKKLHEEELRDLQTSVESQ,5.19
17,DEIEFLKKLHEEELRDLQISVESQ,5.18
18,DEIEFLKKLHEEELRDLQQSVESQ,5.01
19,DEIEFLKKLHEEELRDLQWSVESQ,5.12
20,DEIEFLKKLHEEELRDLQSSVESQ,4.6
21,DEIEFLKKLHEEELRDLQDSVESQ,5.58
22,DAIEFLKKLHEEELRDLQVSVESQ,2.22

row,Variant,protein stability index
1,DHIEFLKKLHEEELRDLQVSVESQ,4.08
2,DPIEFLKKLHEEELRDLQVSVESQ,4.13
3,DWIEFLKKLHEEELRDLQVSVESQ,1.69
4,DIIEFLKKLHEEELRDLQVSVESQ,2.1
5,DEIEFIKKLHEEELRDLQVSVESQ,4.97
6,DEIEFEKKLHEEELRDLQVSVESQ,5.18
7,DEIEFDKKLHEEELRDLQVSVESQ,5.56
8,DEIEFQKKLHEEELRDLQVSVESQ,5.54
9,DEIEFVKKLHEEELRDLQVSVESQ,4.46
10,DEIEFLKKQHEEELRDLQVSVESQ,4.98
11,DEIEFLKKFHEEELRDLQVSVESQ,4.65
12,DEIEFLKKIHEEELRDLQVSVESQ,4.88
13,DEIEFLKKVHEEELRDLQVSVESQ,5.01
14,DEIEFLKKLHEEELRDLQVMVESQ,4.81
15,DEIEFLKKLHEEELRDLQVHVESQ,4.91
16,DEIEFLKKLHEEELRDVQVSVESQ,5.02
17,DEIEFLKKLHEEELRDIQVSVESQ,4.97
18,DEIEFLKKLHEEELRDDQVSVESQ,5.25
19,DEIEFLKKLHEEELRDYQVSVESQ,3.39
20,DEIEFLKKLHEEELRDRQVSVESQ,5.06
21,DEIEFLKKLHEEELRDGQVSVESQ,5.21
22,DEIEFLKKLHEMELRDLQVSVESQ,4.33

row,Variant,protein stability index
1,DEIEFLKKLHEIELRDLQVSVESQ,4.05
2,DEIEFLKKLHEFELRDLQVSVESQ,4.07
3,DEIEFLKKLHEKELRDLQVSVESQ,4.82
4,DEIEFLKKLHEGELRDLQVSVESQ,4.19
5,DEIEFLKKLHEEEHRDLQVSVESQ,5.31
6,DEIEFLKKLHEEEDRDLQVSVESQ,5.57
7,DEIEFLKTLHEEELRDLQVSVESQ,4.78
8,DEIEFLKYLHEEELRDLQVSVESQ,4.23
9,DEIEFLKKLREEELRDLQVSVESQ,4.87
10,DEIEFLKKLCEEELRDLQVSVESQ,4.56
11,DEIEFLKKLQEEELRDLQVSVESQ,5.03
12,DEIEFLKKLMEEELRDLQVSVESQ,3.88
13,DEIEFLKKLAEEELRDLQVSVESQ,4.42
14,DEIEFLKKLPEEELRDLQVSVESQ,5.1
15,TEIEFLKKLHEEELRDLQVSVESQ,4.71
16,NEIEFLKKLHEEELRDLQVSVESQ,4.78
17,KEIEFLKKLHEEELRDLQVSVESQ,3.95
18,MEIEFLKKLHEEELRDLQVSVESQ,4.18
19,REIEFLKKLHEEELRDLQVSVESQ,4.01
20,EEIEFLKKLHEEELRDLQVSVESQ,4.78
21,DEILFLKKLHEEELRDLQVSVESQ,4.15
22,DEIYFLKKLHEEELRDLQVSVESQ,3.9

row,Variant,protein stability index
1,DEIDFLKKLHEEELRDLQVSVESQ,4.93
2,DEISFLKKLHEEELRDLQVSVESQ,4.93
3,DEIKFLKKLHEEELRDLQVSVESQ,4.18
4,DEIPFLKKLHEEELRDLQVSVESQ,4.62
5,DEIEFLKKLHEEELRDLQVSVFSQ,3.38
6,DEIEFLKKLHEEELRDLQVSVLSQ,3.88
7,DEIEFLKKLHEEELRDLQVSVDSQ,4.99
8,DEIEFLKKLHEEELRDLQVSVMSQ,4.27
9,DEIEFLKKLHEEELRDLQVSVWSQ,3.29
10,DEIEFLKKLHFEELRDLQVSVESQ,3.69
11,DEIEFLQKLHEEELRDLQVSVESQ,4.61
12,DEIEFLKKLHEEELRDLQVSVEKQ,4.5
13,DEIEFLKKLHEEELRDLQVSVEMQ,3.96
14,DEIEFLKKLHEEELRDLQVSVEYQ,4.71
15,DEIEFLKKLHEEELHDLQVSVESQ,4.39
16,DEIEFLKKLHEEELVDLQVSVESQ,4.94
17,DEIEFLKKLHEEELPDLQVSVESQ,4.98
18,DEIEFLKKLHEEELRDLVVSVESQ,4.38
19,DEIEFLKKLHEEELRDLHVSVESQ,4.69
20,DEIEFLKKLHEEELRDLAVSVESQ,4.46
21,DEIEFLKKLHEEELRDLGVSVESQ,5

# Reference: the supplement of paper PMC10567573
